Among the data in US20170198014A1 (UNIVERSITY WASHINGTON THROUGH ITS CENTER FOR …, published 2017) are Kd values, retold here.

As usually defined, the Kd is a measure of binding affinity in units of concentration. A lower Kd goes with tighter binding.

Test [1] concerns the target T1, hemagglutinin H3 (A/Hong Kong/1/1968-H3N2) (influenza A virus A/Hong Kong/1/1968 …, UniProt Q91MA7 27-521). As to the kind of experiment: BLI (FIG. 5).
Test [2] has as its target T1, hemagglutinin H3 (A/Hong …). The test is described as follows: BLI (Octet), biotinylated HA on streptavidin sensors.
Test [3] concerns the target hemagglutinin H1 (A/Solomon Islands/3/2006) (influenza A virus A/Solomon …). Described as above.

B1: HAA.1 c fused to Hsc1-EA via a triLong linker, trimer (designed binder)
chain: MEEVVLITVPSEEVARTIAKALVEERLAACVNIVPGLTSIYRWQGEVVEDQELLLLVKTTTHAFPKLKERVKALHPYTVPEIVALPIAQGNQEYLDWLRENAGGGGSGGSGIVNVPNCNTTKYQQLARTAVAIYNYHEQAHLTFVENLNCKEQGNYYYITLAATDDAGKKAIYEAKIGVVESAGWTGVEEFKLV
In turn, B1 returned a Kd in test [1] of less than 1 nM.

B2: Hsc1 (SEQ ID NO:135) fused to HAA.1c (SEQ ID NO:227) via the triLong linker (SEQ ID NO: 352), trimer (designed binder)
chain: MEEVVLITVPSEEVARTIAKALVEERLAACVNIVPGLTSIYRWQGEVVEDQELLLLVKTTTHAFPKLKERVKALHPYTVPEIVALPIAQGNQEYLDWLRENAGGGGSGGSGIVNVPNCNTTKYQQLARTAVAIYNYHEQAHLTFVENLNCKEQLGEGDYYYITLAATDDAGKKAIYEAKIGVVESAGWTGVEEFKLV
As to B2, the dissociation constant (Kd) in test [2] and in test [3] was less than 1 nM in each case.
